# Results published in the DeepSol protein solubility set.
# Assay: soluble on expression in E. coli; label from the status in PepcDB or PDB records
row,Sequence,soluble on expression in E. coli
1,VDEIGELADSFNTLTKRVQEAQAMTEGERRKLSSVLAYMTDGVIATDRRGKVILINTPAEKMLRVKHESANGRSIIDVLDIGDTYQFEDLMEVDGSLTMDRSTLDKPYVLRANFSVIQRETG,not soluble
2,MIFVLGGTSDSLLISDWLTETKRPFILSVATDYGETLAKQHAEKVFCGRLAKEAMLAKWQLEQIKLVIDATHPFATIVSETAMEACKEAGIPYIRFERTSEQTDNTYLVDDINEACKVAAKLGQRIFLTTGSKNLPEFVAGLKQQHIIARILPVSDVIRSAEELGLVADQIIGMKGPFTKEANRTQLEMTQADVLITKESGKQGGFQEKLTAAAELNIPVIVIRRKKLNYPIEINHLTELPEILTQLEV,not soluble
3,MGSDKIHHHHHHMSNLLEVNSLNVQFNYDETTVQAVKNVSFELRKKHILGIVGESGSGKSITAKSILGLLPDYPDHTLTGEIIFNGQSLNNLSTSALQQIRGKDISMIFQDPLSSLNPRLTIGKQITEVLFQHKRVSKSEAKSMTINILEKVGIKHATRQFDAYPHELSGGMRQRVMIAMALILKPQILIADEPTTALDASTQNQLLQLMKSLYEYTETSIIFITHDLGAVYQFCDDVIVMKDGSVVESGTVESIFKSPQHTYTKRLIDAIPDIHQTRPPRPLNNDILLKFDRVSVDYTSPSGSLYRAVNDINLAIRKGETLGIVGESGSGKSTLAKTVVGLKEVSEGFIWYNELPLSLFKDDELKSLRQEIQMIFQDPFASINPRFKVIDVIKRPLIIHGKVKDNDDIIKTVVSLLEKVGLDQSFLYRYPHELSGGQRQRVSIARALAVEPKVIVCDEAVSALDVSIQKDIIELLKQLQLDFGITYLFITHDMGVINEICDRVAVMKNGEIVELNNTEDIIKHPQSDYAKQLISEVAVIAK,not soluble
4,MSLGLINPDFQTLPELFTSVFSHFKGQPDKAPIARKINGAYSPISYDSLAEDCRHFAAYLKERGIEPGDRVAILSENRPGWYLADIAILSLGATDVPLYPSLPPNQIEYILNNCSAKGIIVSNMLQLGKILSIWPKLPELNMVIVMNKLDEPVEDVIDLSQAKTEGKKVLEAKPWLLDGIKSNPDDVATLIYTSGTTGLPKGVMLTHRNICENVKSCSTVIRIDQTDSSLSFLPLSHAYERTGGYYLMFACGARINLAESVETISLNISEAKPTIIFTVPRLFDRMKASILKSVTSEGGVKEKIFFWAVSTGEKYHKQLATGKVSPLLAVQHNLADKLVYSKIRKKFGGKLRYFVSGGAALPQKTGEFFQSIGITILEGFGLTETSPVTNVNRPEKVKFGTVGLPVKNVEVKIAPDGEIMLKGPNIMKGYWKDEAASAEVLRDGWLYTGDIGEVDSEGYLKITDRKKHIIVTSGGKNIAPLQIENLILDSPYVDQAMIVGEKRPFLIALIVPDFLKLRDFAAEHQIKASSTKELINTKEVIEVYEKLLKSISRQLATHEKVRKFLLLEEPFSIENGMMTPTLKLKRKEITTKFSAEIDNLYNTLNMVYNTEGHHHHHH,soluble
5,MGSDKIHHHHHHMNEQWFLLGDIHGSAQPVHYFYQKNKERLSLDSSENFMILLGDVGANFALTGQRDHKFKSELSKLPFTFICLRGNHEARVKTVMDKNPDGWETISKYDGSIFVEKEFPYIEYLADGPAVYNFKSYKTLSLPGAYSVDKYYRQARHLTWYKDEQLNEKEMELGRKLCRNEAPFDLVLSHTCPYLYEPTDLFLAGLDQSTVDSTMERYLGEIEFNLDYKRWAFGHFHADRLYPWADGRQMLMLFNENVVNLDKFMNMTEKQSFKDIIA,not soluble
6,MSKYLHSEKAYLDLINAVKDKFNYKKSVVPYIIYFLLKTGMRYGELIALTWEDIDFDKGIFKTYRRFNSETSQFVPPKNKTSIRIVPVDNECLEILKNLKIEQNQSNKELGLQNTNNMVFQHFGYPNSVPSTNGTNKVLRGIVQELNIEPIITTKGARHTYGSFLWHRGYDLGIIAKILGHKDISMLIEVYGHTLEEKIQEEYNEIKQLWLEHHHHHH,soluble
7,MGSDKIHHHHHHAAENLPIQNELFSEYFKKLNPTNYNTKMNRELYIFFKQMFNIDIVKDNIDNANFPTFEEVLGLLDLAEQRKEAFRNFGLENLNNRSDSIRFLRQYLILLMAEAIHNTPRTDNKYHKLLVENLLENDLLLDTTFISANYDIHIDNTVTGLRDKNDLPIMLDYGVEFTNFKEELNWRKPKEPLIKLYKIHGSLNWLYCPICNSVTLTPHEGGVMKLIENSSETKCLECGELTEPIIVPPTYFKNMSNIFLSNVWNETEKTLRDTDLLIFCGYSFPEADMHIKYMLKRVQTNRKKPPLKIMVFNNHSQKQRITLKKEEGRYKRFLGEDVIFTDNSFQDFSVNPLRFIKNI,not soluble
8,MPKRKLKTPESTETTKICKKNDNFSDFWSEKLDEIGSAHLADTKSRTKSAVKHELTGIGSSSIYKGTRDLQLPKSEDLSNFGWNEGVLEHLQVLLEEIEVDEKKEEQIEAERGAILKFTAEYRDLLAITGDQGGYRSIYCAHIIQHLIRNKNLIIGNKRKLEIASTQEGGADEETIESCRDSGFVRPVVLVLCAFKKDAYDIINRLRRILHGDDEGKSEVWNKNRFEEEYSGPTELPTTRADFPDDHKELLLGNNDDAFRIGLAISKKVLKLYEKFEKADILVCSPLGLRMILNGDDGNEAHLISSINMTIVDRTDIMLQQNWENLQLIFSHLHSQPSKIDVDISRVRKLYLDGQSRHFSQLLMFSRYSHELFTSLMLQNSQNHRGLVIAKPKQSGTLSNIEIPLCQELHKFEVKDPNETSDLRFKYFVDKIMPSLIPRTLIVIPSYFDFVRVRNHLKKAEESFVMCHEYATRAKVDRAREMFFHERKSYLVVTERWYFFNRRHLTGVHRVVFYQLPSHPLFYSEFINMSDAETSQRFLAVLLLCKYDRIRLENTFGTEMAAAVMSNKQAVQAIVSQ,not soluble
9,MSLRKHCIAIGGGGWMMGENPSPLYQYILSLSGKENPNICFLPTATGDADEVIERFYNAKLSENVTHFPLFKFDAGWKETLFEQDIIYVGGGNTRSMLAIWREWGIDRILKQCYEQGIIICGMSAGAICWFEFAVTDSDPEAYQVMRCLGLIDGLAAAHFSHVGEKFEVFQAFARSQPSITCYGIHDYAALHFVDGKLLATVTSFPDAGVLVKTGNDENILRGEGHHHHHH,soluble
10,PFEPLITAVIETSLNTLIKDDPALGRRLARLKGQVIQVHLKEIDKTLTFVFSQQIDVLGNYEGQPDCYLSLNLSVLPELRDQANITRLIKQDKLELEGDIQLAQKFSQLMTDCKPDIEEWLSRVTGDVVAHTLVQGTKNVGGFFVSQAEKHQRHLAQVVTEEWKLAPAPLEVAYFCDQVDEVRSQASRVEARLNALLSKVGSDKPA,not soluble
11,TDGQLTKQHVRALAISALAPKPHETLWDIGGGSGSIAIEWLRSTPQTTAVCFEISEERRERILSNAINLGVSDRIAVQQGAPRAFDDVPDNPDVIFIGGGLTAPGVFAAAWKRLPVGGRLVANAVTVESEQMLWALRKQFGGTISSFAISHEHTVGSFITMKPALPVHQWTVVKALTKEL,soluble
12,MIEQFNFDIRLIFAILNGKVSAAINRKLYRNFRQNGLEISPEQWTVLIFLWEKDGVTQQELCNATFKDKPSMTRLIDNMERQHLVVRISDKKDRRTNLIHLTKDGKELEEKARIIAGQTLKEALHGITLEELSIGQEVLKKVFYNTKD,not soluble
13,MGSDKIHHHHHHMRKDISTNDKDINDLFLKVVDLVTQARERVATAINIAEVFTKFHIGQYIVEYEQKGETRAEYGKAVLKELSKRLTDRLGDGWSYSTLKNIRQFYIVFSKGLTSGCPKSSQKANQWLADYSKAEEHISEPTFALSWSHYLILMRVENPDARSFYEIECTQQQWSKRQLSRQVGSCLYERLALSRNKDEVMRLAKEGQTIGKPSDIIKNPITLEFLGLKPDAVYSESKLENAIINKMQQFLLELGKGFLFEARQKRFTFDEQHFFVDLVFYNRLLQCYVLIDLKIDKLTHQDLGQMQMYVNYYDRYVKQDFEKPTIGILLCKEKNDALVELTLPKDANIYASAYQLYLPNKALLQAKVKEWIEEFEENEELKKLEENE,not soluble
14,MAHHHHHHMKNCMMADQRGRSILQYQPIVGDEALEFSRGLAPSTFGFRYAAYMDRNHFLPSGRTAVKHIADPTLAYVMTRYRQCHDFVHIITGCGRSIEEELAVKIFEWKHTGLPLGLLSLLGGAPRLSAAQWAHIRLYWEWASRNAPSSRHGEPAVPMYLNVPWEDMLAKEYDEVVAYTGITPLPDFLEKRQKH,not soluble
15,MSLGFKEYYRAFPTYTKIESKEYKGRVETLGPILIKYMNKNRGKVLDLACGVGGFSFFLEDLGFDVVGLDNNPEMIEAAKRYAEKRSSKVNFVVGDAKNLPFENNSFDYVIFIDSIFHFTPSELNQVFKEVKRVIKPEGRFLIYFTDLRELLPNLKERLVIGEKYWVNRITTDTSERIATIEFKSEDDEFRVEFNIWGKTGVELLAKLYFTKEAEEKVGGYSYLIVYNPKEGHHHHHH,soluble
16,MGSDKIHHHHHHMATVDLSQLPQPQIIEVLDFEVILREVKAVMIAAFPANQQASVTAALELESEPLNQIAQVIAYRELMLRQRINEGAASCMLSHAVSSDLDNLAANLNTERLVITAETETADAVMENDAAFRLRAQSAFEGLSVAGPTAAYEYFAKSASGKVKDAKAISPSPAVVVVSVISSEANGTASSELLSTVETALSAEDKRPVADRLTVQSAEIVDFAINAVLYLYPGPESEPIHTAAQKALQSWIGEQGMIGRDVARSSIMAALHVQGVQRVSVVEPPHDIVISDTQAAYCTGFTVTTGGIDG,not soluble
17,PDVKCVCCTEGKECACFGQDCCVTGECCKDGTCCGI,soluble
18,MAVPESKEALIKAINSQFTLLMKKIDAVPAERAFSPEMAGHAQGTQMSPANLVAYLLGWGNVVLKWHEDEEQGKTIDFPEAGYKWNQLGLLAQKFYQDYAPITDWAELIALLAANKLALIALVERYTDEQLYGEGWYGKWTRGRMIQFNTAAPYKNAAGRLRTWEKNKLEHHHHHH,not soluble
19,MGSDKIHHHHHHMLLSSDASAFLSPRTVQASRMKPLRIGLFTDTFLPDQNGIVTSVGLLSDELRARGHHVDVVAPFFPEQQDTRPDVRRAPSVRYIFLPTYRLAWPTRKDFEQKYDLIHTHTPLTLGLAGARLARKWDVPHVATYHTHIEAYTHYVPGLTLLQKHTRVVTRLMGLYYRRADAVITPTAAMLDVTREMGVRNPVVIPTSVKPEVLQAAPPVENPWPAGTRRLLTVGRLAREKRFDLVLDTLANLPDAHLVVLGEGPEREHLIRHAERLGVAARVSFLGVKPWTEIGAYYRLAELFLFASDTETQGLVLQEAQLMGVPVIAVGARGTLSGVAQGRSGYLVAPGDVAALTRHAQAILADGQLWRRLSEGARAFGAAWTPGGVAERVLDVYASVLGVPREIPFPEAASPRNTLAYDR,not soluble
20,MSILLVKNAQIVNDDAIFVADILIEDGIIQNVAPNLEAPEGAEVLDAAGKLALPAGIDVYTQVTDSSVDDLSTGCKSAIAGGTGTIVEVVRPRGAESVVSAVKRVKNQLEKSGISCHVALSVAITDFCEQEMSELVKNEGINSFVLDGVSLTDDKLLELFEHVKRLGALIRVVPENKSIVAMLEKKMLKLGVTGPEGFPQSRPESLEADRVSGVCVLGNLASCPISIVQVSSADSLAAIEKARASGALAHAEIASAAVTADGSALFSQDLRFASAHLTDVPLRRGAPDRMIGALSTQPLVVCTSGHRPVNSATRVAAKDFAIAQKGSTGAEERMAVVWERAVRSGRIDAMRFVAVTSTNAAKMFNMYPKKGRIAVGADADLVIWDASGKRVLESSRAQSSQENSMYDGLTVHSVVTATIVGGKIAYQNGEVREAPVAGGFLRLSPNSPYLFSMVGQRDKFANVERVEREASSQQQKPQQNGHHKNSGDFDRNRTKVMESSIDFGGSAANRPRNPPGGRTTGFW,not soluble
21,MPAHPAKTDLASSAGARGGALAMESAEHSASPAIATTARLLAAMKDQPGALLPVLHAVQDELGFIPPEAVQTIAETLSLSRAEVHGVITFYPHFRSEPAGRHVLEICRAESCQAMGGDALAAHARQRLGCEFHATAADGSCTLEPVYCLGLCAQSPAVMIDGQPHARVTPAKLDRLLARAIEATP,not soluble
